Here are results for three molecules from patent publication US20160215299, “EXPRESSION METHOD OF ACTIVE GOLDFISH TGF2 TRANSPOSON RECOMBINANT TRANSPOSASE PROTEIN” (Shanghai Ocean University, published 2016).

Series [1] has as its system T1, gfTP1 transposase (Tgf2 transposase, 686 aa, recombinant 720 aa) (Carassius auratus).
T1 sequence: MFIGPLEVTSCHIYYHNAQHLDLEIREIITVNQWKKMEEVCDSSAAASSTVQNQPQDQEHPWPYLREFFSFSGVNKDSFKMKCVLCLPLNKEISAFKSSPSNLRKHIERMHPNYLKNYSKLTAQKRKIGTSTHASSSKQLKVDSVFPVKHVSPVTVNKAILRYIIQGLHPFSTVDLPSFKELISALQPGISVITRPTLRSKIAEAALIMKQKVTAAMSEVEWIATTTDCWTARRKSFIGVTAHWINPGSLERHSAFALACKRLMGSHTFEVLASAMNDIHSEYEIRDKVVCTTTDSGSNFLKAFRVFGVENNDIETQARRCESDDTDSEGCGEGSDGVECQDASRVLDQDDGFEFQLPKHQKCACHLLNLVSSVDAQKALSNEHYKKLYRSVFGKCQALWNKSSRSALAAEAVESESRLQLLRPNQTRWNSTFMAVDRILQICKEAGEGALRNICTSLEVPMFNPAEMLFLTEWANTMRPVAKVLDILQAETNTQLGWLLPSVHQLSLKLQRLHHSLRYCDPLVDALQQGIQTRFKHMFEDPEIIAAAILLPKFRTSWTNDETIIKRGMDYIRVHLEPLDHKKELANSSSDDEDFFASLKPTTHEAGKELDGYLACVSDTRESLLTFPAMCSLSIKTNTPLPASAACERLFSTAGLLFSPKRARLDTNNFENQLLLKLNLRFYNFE
In words: cell_activity. The conditions noted are these: genomic integration rate in one-year-old blunt snout bream (35/77) vs 10% with donor plasmid only; 8-bp direct repeats at insertion sites.

Series [2] has as its target T2, gfTP1 transposase (Tgf2 transposase, 686 aa, recombinant 720 aa) (Carassius auratus).
T2 chain: T1 sequence
As to the kind of experiment: EMSA; 25 C, 0.5-1 h; 1x protein shifts probe, 10x gives slower complex (oligomer); control cold probe no signal. The settings on record: tags: N-terminal 34 aa His6-containing tag from pET-28a, E. coli Rosetta 1(DE3); label: biotin. How it is done:
The 50 by sequences of left and right ends of goldfish Tgf2 transposon labeled by biotin were used as probes. The DNA binding activity was verified by EMSA, using non-denaturing polyacrylamide gel electrophoresis at 80 V for 1.0 h. Lane 1: biotin-labeled probes based on left (or right) end; Lane 2: the supernatant of cells without IPTG induction; Lane 3: co-incubation complex of biotin-labeled cold probes for control and the purified recombinant goldfish gfTP1 transposase; Lane 4: co-incubation complex of biotin-labeled probes based on Tgf2 left (or right) end and the purified 1× recombinant goldfish gfTP1 transposase; Lane 5: co-incubation complex of biotin-labeled probes based on Tgf2 left (or right) end and the purified 10× recombinant goldfish gfTP1 transposase.
On the technique in general: A gel shift assay detects complexes by their altered migration in electrophoresis.

Consider donor plasmid pTgf2-zfβ-actin-eGFP, for which the activity in series [1] is 45%.

B1: Tgf2 right end 50 bp probe (dsDNA)
DNA 1: CAGAGGTGTAAAAGTACTAAAAATATTTACTAAAGTGAAAGTACAAGTAT
DNA 2: ATACTTGTACTTTCACTTTAGTAAATATTTTTAGTACTTTTACACCTCTG
With B1, the binding result in series [2] was “binds”.

B2: Tgf2 left end 50 bp probe (dsDNA)
DNA 1: CAGAGGTGTAAAAGTACTTAAGTAATTTTACTTGATTACTGTACTTAAGT
DNA 2: ACTTAAGTACAGTAATCAAGTAAAATTACTTAAGTACTTTTACACCTCTG
With B2, the binding result in series [2] is on record as “binds”.
